Experiments:
[1] = molecular target: T1, human FcRH5c (full length human FcRH5) (human, UniProt Q96RD9 16-977); experiment: FACS, APC-labelled antibodies on SVT2 cells with full-length human FcRH5
T1 construct: Used on transfected SVT2, 293, EJM and OPM2 cells and endogenously on MOLP-2 cells and CD19+ B cells; also called IRTA2c; huFcRH5
T1 sequence: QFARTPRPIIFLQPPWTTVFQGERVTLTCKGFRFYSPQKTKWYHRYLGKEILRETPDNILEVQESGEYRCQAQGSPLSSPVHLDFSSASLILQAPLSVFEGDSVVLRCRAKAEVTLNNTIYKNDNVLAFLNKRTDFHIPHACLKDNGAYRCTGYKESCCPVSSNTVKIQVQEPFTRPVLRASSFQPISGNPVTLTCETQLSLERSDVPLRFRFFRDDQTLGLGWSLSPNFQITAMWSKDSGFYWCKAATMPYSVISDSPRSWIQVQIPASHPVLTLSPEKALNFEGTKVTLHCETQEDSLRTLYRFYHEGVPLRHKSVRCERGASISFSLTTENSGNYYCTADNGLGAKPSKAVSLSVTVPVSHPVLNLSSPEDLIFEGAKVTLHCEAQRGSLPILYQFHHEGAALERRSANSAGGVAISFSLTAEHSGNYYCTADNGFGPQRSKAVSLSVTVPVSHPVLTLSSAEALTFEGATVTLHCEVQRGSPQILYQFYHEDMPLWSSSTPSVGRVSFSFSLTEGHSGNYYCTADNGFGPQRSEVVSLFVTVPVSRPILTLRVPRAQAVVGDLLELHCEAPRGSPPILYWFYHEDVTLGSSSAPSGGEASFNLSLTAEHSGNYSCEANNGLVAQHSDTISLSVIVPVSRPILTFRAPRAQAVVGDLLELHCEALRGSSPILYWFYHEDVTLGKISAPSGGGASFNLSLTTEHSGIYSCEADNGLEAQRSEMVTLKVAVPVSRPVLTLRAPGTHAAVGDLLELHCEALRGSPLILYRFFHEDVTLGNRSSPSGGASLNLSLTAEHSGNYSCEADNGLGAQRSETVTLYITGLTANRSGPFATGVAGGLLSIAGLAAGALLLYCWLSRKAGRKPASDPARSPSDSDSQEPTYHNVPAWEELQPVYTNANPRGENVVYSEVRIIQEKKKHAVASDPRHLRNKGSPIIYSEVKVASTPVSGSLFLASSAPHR

[2] = molecular target: T2, human FcRH2 with N-terminal gD-expression tag on SVT2 cells (human, UniProt Q96LA5 20-508); experiment: FACS, SVT2 cells with gD-tagged FcRH2, subclone supernatants, anti-mouse PE
T2 construct: whole, on cells; also called SVT2/FcRH2
T2 sequence (looked up): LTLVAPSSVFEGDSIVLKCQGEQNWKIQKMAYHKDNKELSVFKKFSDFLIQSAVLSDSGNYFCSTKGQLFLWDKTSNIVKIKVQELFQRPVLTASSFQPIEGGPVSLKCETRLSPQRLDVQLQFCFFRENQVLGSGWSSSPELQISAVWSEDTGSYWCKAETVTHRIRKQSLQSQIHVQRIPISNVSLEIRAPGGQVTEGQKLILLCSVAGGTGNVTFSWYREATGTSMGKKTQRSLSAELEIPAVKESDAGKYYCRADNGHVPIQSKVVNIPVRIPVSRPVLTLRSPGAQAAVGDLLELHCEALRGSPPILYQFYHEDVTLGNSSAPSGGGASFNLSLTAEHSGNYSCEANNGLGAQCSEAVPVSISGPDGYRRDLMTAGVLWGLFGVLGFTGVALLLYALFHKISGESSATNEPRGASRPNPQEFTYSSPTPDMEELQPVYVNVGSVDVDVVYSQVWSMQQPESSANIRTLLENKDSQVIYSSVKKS
Description: Fc receptor homolog (FcRH) family molecules have a high degree of homology to one another (Miller et al., 2002). The homology is especially high between the membrane proximal domains, which the E11 antibodies target (Miller et al., 2002). To investigate the cross reactivity to family members, FcRH1, FcRH2, FcRH3 and FcRH4 (all including an N-terminal gD-expression tag) were expressed in SVT2 cells and cells were stained with subclone supernatants and goat anti-mouse-PE secondary antibody. Expression of the transfected FcRH was confirmed by a signal from anti-gD antibody in all cell lines. […] Overall, the signals from FcRH3-expressing SVT2 cells were low, including the gD control antibody, indicative of low expression level. Low level of binding to FcRH3-expressing SVT2 cells was detected for 1F4 and 4H8 supernatants (FIG. 6C).

B1: 3B12.1.1 (antibody, IgG2b, V domains shown)
VH: EVQLQQSGPELVKPGASVKISCKTSGYTFTEYTIHWVKQSHGKSLERIGGINPNNDAVSYNQRFRGKATLTVDKSSSTAYMELRSLTSEDSAVYYCAKLGRGYYFDYWGQGTTLTVSSASTKGPSVFPLAP
VL: DIQMTQSPASLSASVGETVTITCRASENIYSNLAWYQLKQGKSPQLLVYGAANLAEGVPSRISGSGSGTQYSLKINSLQSEDFGTYYCQHFWGIPWTFGGGTKLEIKRTVAA
notes: parent 3B12 and subclone 3B12.1 treated as the same antibody; also called 3B12.1.mIgG2b
B1: binds [1]; no binding [2].

From patent US20150098900A1 (Genentech, published 2015)
